# According to the supplement of paper PMC10724198:
# ± gives the standard deviation of the averaged measurements.
# Tested on: Saccharomyces cerevisiae
# Experiment: protein stability index of tFT-peptide fusion (C-terminal peptide) (PSI (0-1 scale)); higher = more stable (slower turnover)
# Details: genetic background: wild type; temperature: 30 C
# Method: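 MPS profiling in S. cerevisiae of the yeast C-terminome library: the last 12 aa of each annotated ORF are fused to the C-terminus of a sfGFP-mCherry timer, after a GGGS linker. Cells are FACS-sorted into 8 mCherry/sfGFP bins and deep-sequenced. PSI runs from 0 (unstable) to 1 (stable); wild type and das1Δ backgrounds, two technical replicates each.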
row,Sequence,protein stability index
1,IKNRLNGLKYRL [YML020W C-terminal 12 aa],0.6784 ± 0.0056
2,ILAENEIEVSRG [FET5 C-terminal 12 aa],0.705 ± 0.0081
3,ILERRLNEDHDC [KXD1 C-terminal 12 aa],0.6885 ± 0.0056
4,ILILFTSINQRG [YOR366W C-terminal 12 aa],0.605 ± 0.039
5,ILMNEFAFNPKV [LEU3 C-terminal 12 aa],0.708 ± 0.044
6,ILTQGGHIIKKK [MNL2 C-terminal 12 aa],0.6938 ± 0.0012
7,IMDKLRAMKNRM [GLO2 C-terminal 12 aa],0.663 ± 0.032
8,IMSTASAQFVGN [YIR018C-A C-terminal 12 aa],0.664 ± 0.0089
9,INKTLAWMDEGL [ERG26 C-terminal 12 aa],0.728 ± 0.055
10,INPMPANFAELS [FAL1 C-terminal 12 aa],0.689 ± 0.049
11,IPSIGKPKTIKI [BUD17 C-terminal 12 aa],0.7017 ± 0.0033
12,IPTSFFFFNSIV [YKL123W C-terminal 12 aa],0.305 ± 0.0033
13,IQFFSQCTSCTV [YLR286W-A C-terminal 12 aa],0.5256 ± 0.004
14,IQYYEEILRRGL [SPP1 C-terminal 12 aa],0.677 ± 0.027
15,IRCVFMFRTNAK [YLR296W C-terminal 12 aa],0.595 ± 0.018
16,IRDAKFCDKHED [BOR1 C-terminal 12 aa],0.671 ± 0.035
17,IRLKRRDFMKNL [RRT12 C-terminal 12 aa],0.382 ± 0.0049
18,ISKKYYSRYDKK [OM14 C-terminal 12 aa],0.616 ± 0.025
19,ISTLKAIYNKMD [PEX9 C-terminal 12 aa],0.672 ± 0.009
20,ISWLEKMKKFFH [MAM33 C-terminal 12 aa],0.693 ± 0.009
21,ITLAELDVGDSE [CAF130 C-terminal 12 aa],0.7119 ± 0.0027

row,Sequence,protein stability index
1,ITNATFREIDDA [SEC12 C-terminal 12 aa],0.671 ± 0.03
2,ITNFFRVLVRLV [YER067C-A C-terminal 12 aa],0.155 ± 0.0039
3,IVCGDGSIHWFQ [FAU1 C-terminal 12 aa],0.769 ± 0.041
4,IVFTSVGAFNIL [YMR172C-A C-terminal 12 aa],0.7349 ± 0.0029
5,IVNIKILRRNSR [LDB16 C-terminal 12 aa],0.7813 ± 0.003
6,IVSFLSDETKSP [ECM18 C-terminal 12 aa],0.714 ± 0.011
7,IWLVYKLYCFIF [CST26 C-terminal 12 aa],0.3155 ± 0.0014
8,IYVCGRLTNDRK [YIL171W-A C-terminal 12 aa],0.65 ± 0.015
9,KAGEMVLKSLRR [SCP160 C-terminal 12 aa],0.783 ± 0.017
10,KAKSRREGTTRT [STU2 C-terminal 12 aa],0.694 ± 0.013
11,KCEEVNDGLRWK [EHD3 C-terminal 12 aa],0.711 ± 0.1
12,KCLYVQVITKSN [ECM8 C-terminal 12 aa],0.256 ± 0.019
13,KDNTVDIYDVNG [TGS1 C-terminal 12 aa],0.682 ± 0.013
14,KEYISDQRKKRK [LOA1 C-terminal 12 aa],0.722 ± 0.023
15,KFLRYNPLEKRD [RPB10 C-terminal 12 aa],0.704 ± 0.02
16,KFNLVTQRENSL [YGR025W C-terminal 12 aa],0.695 ± 0.026
17,KGGEDGSLVSSN [NHP10 C-terminal 12 aa],0.709 ± 0.011
18,KGGLEGWVKSQL [LYS4 C-terminal 12 aa],0.811 ± 0.074
19,KGRALENLPDES [SSM4 C-terminal 12 aa],0.692 ± 0.032
20,KICEVAARQKWI [AAN1 C-terminal 12 aa],0.627 ± 0.02
21,KIEVSSQESWGN [HSP26 C-terminal 12 aa],0.693 ± 0.037

row,Sequence,protein stability index
1,KINYDAIDGLFR [BRF1 C-terminal 12 aa],0.681 ± 0.014
2,KKGLLHKLKKKL [IST2 C-terminal 12 aa],0.668 ± 0.045
3,KKGRQERKLANR [PPZ2 C-terminal 12 aa],0.683 ± 0.029
4,KKKANIPKAKSA [HUT1 C-terminal 12 aa],0.686 ± 0.013
5,KKKFSFFGKRKK [PAM1 C-terminal 12 aa],0.704 ± 0.048
6,KKKFYKQYHFDL [PDR8 C-terminal 12 aa],0.727 ± 0.035
7,KKKNKNKGKKKR [SRP21 C-terminal 12 aa],0.719 ± 0.048
8,KKKSRMFSFRKS [UBP13 C-terminal 12 aa],0.709 ± 0.048
9,KKNDTPKPKPLK [SFC1 C-terminal 12 aa],0.678 ± 0.01
10,KKNRSGLRHSES [SQS1 C-terminal 12 aa],0.6606 ± 0.0038
11,KKPFDKKPKFNI [YKU70 C-terminal 12 aa],0.686 ± 0.017
12,KLCTGIVWAPRV [YAR070C C-terminal 12 aa],0.7035 ± 0.0022
13,KLDIPVSFLLAA [YBL053W C-terminal 12 aa],0.467 ± 0.044
14,KLKFLQNTYNND [CCE1 C-terminal 12 aa],0.635 ± 0.0079
15,KLLGIFPNLSNF [YLL054C C-terminal 12 aa],0.358 ± 0.0064
16,KLYNYLLSIEVY [YLR123C C-terminal 12 aa],0.191 ± 0.0098
17,KMDKRAKNSDSA [RPL8A C-terminal 12 aa],0.6886 ± 0.0018
18,KMLDALKNERKK [HTL1 C-terminal 12 aa],0.673 ± 0.038
19,KMPLVPTHYYKQ [GCV1 C-terminal 12 aa],0.6559 ± 0.00066
20,KNEQDEDKWDDF [GCS1 C-terminal 12 aa],0.672 ± 0.014
21,KNIKRDLRNVRI [TAX4 C-terminal 12 aa],0.6514 ± 0.0059

row,Sequence,protein stability index
1,KNRYLHLLEQHK [BET4 C-terminal 12 aa],0.67 ± 0.04
2,KPLLTSIFPNHK [YBL012C C-terminal 12 aa],0.667 ± 0.0098
3,KPLYYRIYRFFC [MMP1 C-terminal 12 aa],0.537 ± 0.0091
4,KQIAKQSSKMMK [VMR1 C-terminal 12 aa],0.708 ± 0.03
5,KQKKQQAQPLRK [VRG4 C-terminal 12 aa],0.673 ± 0.026
6,KQLQEGNRRHKL [DCI1 C-terminal 12 aa],0.808 ± 0.15
7,KSEEAKKRTSLY [YBR124W C-terminal 12 aa],0.679 ± 0.023
8,KSLFSIIDDLQS [MSH6 C-terminal 12 aa],0.727 ± 0.021
9,KTFWDKFWNVVA [CAN1 C-terminal 12 aa],0.193 ± 0.014
10,KTGKSSVIDLQR [GCN2 C-terminal 12 aa],0.726 ± 0.11
11,KTRWQRVWDVLS [ALP1 C-terminal 12 aa],0.207 ± 0.01
12,KTSSKGNARTLL [FMP49 C-terminal 12 aa],0.709 ± 0.0091
13,KVETVLNKMFEK [REC114 C-terminal 12 aa],0.687 ± 0.022
14,KVIRGKGFKLPK [ERD2 C-terminal 12 aa],0.667 ± 0.036
15,KVLACYEEIDDY [UBC11 C-terminal 12 aa],0.712 ± 0.059
16,KYEPTQEIIEDI [ITR1 C-terminal 12 aa],0.702 ± 0.048
17,KYNNYFKIPPKY [BI3 C-terminal 12 aa],0.659 ± 0.018
18,LAKLINKSCVFK [YKL069W C-terminal 12 aa],0.642 ± 0.029
19,LARGGVASFTVK [RNH70 C-terminal 12 aa],0.652 ± 0.0088
